According to the domain aggregation screens of Martell et al. (2025):

Assay: soluble fraction after stress (log2 fold change); higher = more stays soluble; pooled small domains, quantitative proteomics
Settings: stress: 75 degC
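Further: 20 min heating vs room temperature control held 20 min.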

**Q.** With “HMHEHWDGSGFPKHLRGANIPLGARVIAVADTYDSITSSRAYRAGSTHEAAEREMRRVSGTQLDPE” as the sequence, how does the “soluble fraction (log2)” value read?
**A.** 0.0624

**Q.** Which “soluble fraction (log2)” value does the source give for “HMAHETIDVAALRVGMFVQLDLGWLSHPFPLSSFRISSEDQIATIRALGLKRVRWSSEQSDS” here?
**A.** -4.58

**Q.** With “HMEPQSRTAYRLIEAMIVTHELPPGSRISEASLSAKLGIGRTPIREALQRLSFEGTVKIVPRSGAFVSEI” as the sequence, how does the “soluble fraction (log2)” value read?
**A.** -2.78

**Q.** Which “soluble fraction (log2)” value does the source give for “HMSGEMGIIVAKRLPIRSEPDELATRAFVLKAGTRVKIVKHLNGWLEIVHDGKAGYVQDLEVYVRVIG” here?
**A.** -0.806

**Q.** For “HMTKLPLLVELSRIIPTDTWVKKIKFSLGSVEFVGISKSASRLLPIVENSSYFHDTKFIGTIVT”, which “soluble fraction (log2)” value is on record?
**A.** -0.547

**Q.** For “HMAPASADQLIDQLNEKVKAKDDKGVAALLTAAQTKMAELAQKDPKEAQAYVAKLQQWMQSNSENIKAALK”, which “soluble fraction (log2)” value is on record?
**A.** 0.439

**Q.** Which “soluble fraction (log2)” value does the source give for “HMTNIDRLIGQTAIVKETINNKKEQGVVRINGMDWTARTEEIDEVILKGKPVEILDIQGIKLIVRKK” here?
**A.** -0.545

**Q.** With “HMLAGKTYEVQTESGGKWTLVASYNVKSQAIQQAQALLESHKYSGVKVIAESDRKGEEVIFNEQSEVT” as the sequence, how does the “soluble fraction (log2)” value read?
**A.** -0.0725

**Q.** With “HMGEVVSAPMPGTILSIKVSQGQTVKRGQVLLILEAMKMENEIVAPRDGVVVQISTTQGASVETGAPLVVL” as the sequence, how does the “soluble fraction (log2)” value read?
**A.** -1.1

**Q.** Which “soluble fraction (log2)” value does the source give for “HMNQNAMIGAHIRNLRLAKKLTLKQLSDESGLSVGFLSQLERGMSSIAIDTLARLAHILGADLSSFF” here?
**A.** -2.65

**Q.** With “HMGDADDLSRELLQQGLSLKEAVADFERRYLQQAMQRHSSIASVSEALDVHFSTLWRKLVKYNLV” as the sequence, how does the “soluble fraction (log2)” value read?
**A.** -0.104

**Q.** Which “soluble fraction (log2)” value does the source give for “HMGDAPLITVDKRTIKVNGAKAQIQVYDTTGRLVKNVSPAGKLTLIEMAKPGIFIVHTQSMSFKVVL” here?
**A.** -0.351

**Q.** For “HMPETAQLTDIQVSRSQAHTGIFSLHYYLTGTDSRGERVRLEISGDDYTRLSGSSSVTVEYYRHTGRIVRY”, which “soluble fraction (log2)” value is on record?
**A.** -1.16

**Q.** For “HMSGRSVSYSEFMSRVEAGQVSSVTLDGERVEVTGSDGSRYVTIAPSDATLTDKLVAKGVEVRADP”, which “soluble fraction (log2)” value is on record?
**A.** 0.462

**Q.** Which “soluble fraction (log2)” value does the source give for “HMEWTDIPTHKVPNVVGKSVEEAKKKLSKFTIEYSGTGEKVVAQSPDAGEKLEEGGTVRLLL” here?
**A.** -0.136

**Q.** With “HMGKEDISQINKLYQNQILDYETYIDTLNSFNIDTKSKDFKNLLDLFIKKSISFETFNKGIINIHNKS” as the sequence, how does the “soluble fraction (log2)” value read?
**A.** 0.328

**Q.** With “HMGSWEDALKNWVDSALASGQKGILEQAVPKFERIMIETALTHTAGRRRDASLLLGWGRNTLTRKIKELGI” as the sequence, how does the “soluble fraction (log2)” value read?
**A.** -0.383

**Q.** Which “soluble fraction (log2)” value does the source give for “HMITANNYFNEVERIGVETLPETLRKGHDLVVRSTNSGTNWSNYQNNESIRKVIDLYLQKLNEYVSTST” here?
**A.** 0.294

**Q.** For “HMTVKRNLVQEILRLKFRHPENFMPNRAFYQEVGINQMRWWDIFYGRKNINQEEYIALSKYF”, which “soluble fraction (log2)” value is on record?
**A.** -0.353

**Q.** For “HMPAEEVPLYKAVVVTTPPNRLRVRFSPAGDFKRWLQSGEEVDVYQELGDWRRIEPNGWSSAEWLQRVG”, which “soluble fraction (log2)” value is on record?
**A.** -0.465

**Q.** With “HMSASAIYVRPKDVKEPEEVADYLSGVLELDREKLYKKITDKSQWIALIERKVDNDIAFDIRNKKFKGIEI” as the sequence, how does the “soluble fraction (log2)” value read?
**A.** -0.301

**Q.** Which “soluble fraction (log2)” value does the source give for “HMARVSGIDLPKNKRGYIGLTYIYGIGRSTALHILNSAGVDPEKKVHEWNDDETTAIRNIINAEIKVEGAL” here?
**A.** -0.631

**Q.** For “HMLEKVLDNHIHKLRLQHKISQQELADAIGVSRKTISTVETGRFTPSVVIALKIAAHFSVSVEQVFTL”, which “soluble fraction (log2)” value is on record?
**A.** -1.14

**Q.** Which “soluble fraction (log2)” value does the source give for “HMDELPKDILRSFGLPDKPWAMELLRNLRRDGFALDGETARAYAEMAAMKPPRTDARQWMTAADVAYRRG” here?
**A.** -0.343

**Q.** For “HMSIEIKTIDVKHADLFQLQDILRNLYPELNIVPDQRNNKLILQGKRELLVEAERLTLQLDTE”, which “soluble fraction (log2)” value is on record?
**A.** 0.248

**Q.** For “HMIDHKVIRSFRQKRNMTLQELAQKANLSVSYLSEIELGKKQPSLETLDKLSKALNISLEGL”, which “soluble fraction (log2)” value is on record?
**A.** -0.535

**Q.** For “HMQLDLSDPSKNKLDSIVSLPIKSLKAVEANGEILFMSENGRFVLRGQLYDIWYKDTLDTSAQIQDAATRI”, which “soluble fraction (log2)” value is on record?
**A.** 0.331

**Q.** For “HMNPIDAHVGARVRLRRMLIGMSQEKLGELLGVTFQQIQKYEKGANRIGASRLYEVSRVLDVPVQYFFDDM”, which “soluble fraction (log2)” value is on record?
**A.** -3.66

**Q.** For “HMETISEIWRLIDGLDEIYRVPLTMYYRSNRSVREIAETLGLSARTVETRIYRARRMIREKWSN”, which “soluble fraction (log2)” value is on record?
**A.** -2.06

**Q.** For “HMRGFGYVRRLPSKRYQASYAGPDLQRHVAPTTFTTKADAESWLGAERKVVESGSWRPPAVREAEARLS”, which “soluble fraction (log2)” value is on record?
**A.** 0.462
